Measured values from the FLAb antibody collection (doi:10.7554/elife.23156).

Experiments:
fluorescein = test: Kd (Tite-Seq); conditions: format: scFv 4-4-20, heavy + light
[1] = yeast surface expression (ratio to wild type); higher = more expressed; conditions: format: scFv 4-4-20, heavy + light

B1: unnamed (protein)
chain 1: EVKLDETGGGLVQPGRPMKLSCVASGFEPQSPSPQNKRQSPEKGLEWVAQIRNKPYNYETYYSDSVKGRFTISRDDSKSSVYLQMNNLRVEDMGIYYCTAHETLLCCLWQGTSVTVS
chain 2: DVVMTQTPLSLPVSLGDQASISCRSSQSLVHSNGNTYLRWYLQKPGQSPKVLIYKVSNRFSGVPDRFSGSGSGTDFTLKISRVEAEDLGVYFCSQSTHVPWTFGGGTKLEIK
In the case of B1, the Kd (fluorescein) is reported as ≥ 10 µM and the yeast surface expression [1] is reported as 0.444.
